Series [1] is described as follows: Plasma stability analysis, mouse plasma. As to conditions: plasma, BTCs.
In the next series the target is Cathepsin B (Homo sapiens, UniProt P07858). Kind of series: Cathepsin B (CatB) cleavage assay. Type of series: biochemical. Particulars: BTCs.
The conditions of series [2]: rat.
Series [3] can be described thus: in vivo. Particulars: male, CD-1, mouse, plasma, intravenous.
Protocol: Male CD-1 mice were dosed with each Bicycle Conjugate formulated in 25 mM histidine HCl, 10% sucrose pH 7 via tail vein injection. Serial bleeding (about 80 μL blood/time point) was performed via submadibular or saphenous vein at each time point. All blood samples were immediately transferred into prechilled microcentrifuge tubes containing 2 μL K2-EDTA (0.5M) as anti-coagulant and placed on wet ice. Blood samples were immediately processed for plasma by centrifugation at approximately 4° C., 3000 g. The precipitant including internal standard (350 μL) was immediately added into the 35 μL plasma sample, mixed well and centrifuged at 3220 g, 4° C. for 15 minutes. The supernatant was transferred into pre-labeled polypropylene microcentrifuge tubes, and then quick-frozen over dry ice. The samples were stored at 70° C. or below as needed until analysis. Supernatant samples were mixed with 50 μL water, vortexed well and centrifuged at 3220 g, 4° C. for 15 minutes. A sample of the supernatant was injected for LC-MS/MS analysis using an Acquity UPLC with AB Sciex 6500+ Triple Quad MS in positive ion mode to determine the concentrations of Bicycle Conjugate and released payload. Plasma concentration versus time data were analyzed by non-compartmental approaches using the Phoenix WinNonlin 6.3 software program. C0, Cl, Vdss, T1/2, AUC(0-inf), MRT(0-last), MRT(0-inf) nd graphs of plasma concentration versus time profile were reported.
Series [4] can be described thus: in vivo. Particulars: rat, plasma.
A short description of series [5]: in vitro. Particulars: rat, plasma, pH 7.4.
Protocol: (§1) Pooled frozen plasma was thawed in a water bath at 37° C. Plasma was centrifuged at 4000 rpm for 5 min and the clots were removed if any. The pH will be adjusted to 7.4±0.1 if required. 1 mM stock solution was prepared with DMSO. Propantheline (positive control) was prepared by making a 100 μM working solution by diluting 5 μL of the stock solution (10 mM) with 495 μL ultra pure water. 100 μM working solutions of test compounds were made up by diluting 10 μL of the stock solution (1 mM) with 90 μL DMSO. 98 μL of blank plasma was spiked with 2 μL of dosing solution (100 μM) to achieve 2 μM of the final concentration in duplicate and samples were incubated at 37° C. in a water bath. At each time point (0, 1, 2, 4, 6 and 24 hr), 400 μL of 200 ng/mL tolbutamide and labetalol in 100% MeOH was added and mixed thoroughly to precipitate proteins. Sample plates were centrifuged at 4,000 rpm for 15 min. An aliquot of supernatant (150 μL) was transferred from each well before submitting for LC-MS/MS analysis.
(§2) The % remaining test compound after incubation in plasma was calculated using following equation: Remaining=100×(PAR at appointed incubation time/PAR at T0 time)
(§3) where PAR is the peak area ratio of analyte versus internal standard (IS).
(§4) The appointed incubation time points are T0 (0 hr), Tn (n=0, 1, 2, 4, 6, 24 hr). The half-life (T½) was calculated from a log linear plot of concentration versus time.
(§5) When the % remaining value at the maximal incubation time, which was 24 hr in this study, was higher than 75%, it is considered to be within the acceptable experimental variation.
Series [6] can be described thus: in vitro. Particulars: human, plasma, pH 7.4.
Protocol: as §1, §2, §3, §4, §5
The nature of series [7]: in vitro. As to conditions: mouse, plasma.
Series [8] in a line: in vitro. Particulars: rat, plasma.
The nature of series [9]: in vitro. As to conditions: cynomolgus monkey, plasma.
A short description of series [10]: in vitro. As to conditions: human, plasma.

Each structure is given as a SMILES string.

Regarding `CC[C@H](C)[C@@H]([C@@H](CC(=O)N1CCC[C@H]1[C@H](OC)[C@@H](C)C(=O)N[C@H](C)[C@@H](O)c1ccccc1)OC)N(C)C(=O)[C@@H](NC(=O)[C@H](C(C)C)N(C)C(=O)OCc1ccc(NC(=O)[C@H](CCCNC(N)=O)NC(=O)[C@@H](NC(=O)Cn2cc(CCC(=O)NCCC(=O)N(C)CC(=O)N(C)CC(=O)N(C)CC(=O)N(C)CC(=O)N(C)CC(=O)N(C)CC(=O)N(C)CC(=O)N(C)CC(=O)N(C)CC(=O)N(C)CC(=O)N[C@@H](C)C(=O)N[C@H]3CN(C)Cc4cc5cc(c4)CN(C)C[C@@H](C(N)=O)NC(=O)[C@H](C(C)(C)C)NC(=O)[C@H](CC(=O)O)NC(=O)[C@H](Cc4ccc(O)cc4)NC(=O)[C@H](Cc4ccccc4)NC(=O)[C@H](CC(=O)O)NC(=O)[C@H](CCC(=O)O)NC(=O)[C@H](CSC5)NC(=O)[C@@H](C)NC(=O)[C@H](Cc4cccc5ccccc45)NC(=O)[C@H](CCC(=O)O)NC(=O)[C@H](CC(N)=O)NC(=O)[C@@H](C)NC3=O)nn2)C(C)C)cc1)C(C)C` [BCY7761, MMAE-PAB-(Cit-Val)-BCY3900, reference compound], the half-life at 2 μM in [1] (pH 7.4, Mouse plasma t1/2 (EDTA), EDTA anticoagulant) is 9.1 h; in series [1] (pH 7.4, Mouse plasma t1/2 (Herparin), heparin anticoagulant), 9.2 h; in series [1] (pH 7.4, Mouse plasma t1/2 expt 2 (EDTA), EDTA anticoagulant, experiment 2), 6.8 h; in the series “in vitro [5]” it was 56.8 h; in “in vitro [6]”, above 57.8 h. In addition, the “% Parent remaining after incubation with CatB, 0 h” value on Cathepsin B (0 h) is reported as 100%. At Cathepsin B (1 h), the “% Parent remaining after incubation with CatB, 1 h” value was found to be 33.687%. For the same compound, the “% Parent remaining after incubation with CatB, 2 h” value on Cathepsin B (2 h) was 15.1%. Besides, the “% Parent remaining after incubation with CatB, 4 h” value on Cathepsin B (4 h) worked out at 4.93%. The “% Parent remaining after incubation with CatB, 6 h” value at Cathepsin B (6 h) came out at 1.01%. Moreover, the “% Parent remaining after incubation with CatB, 24 h” value at Cathepsin B (24 h) is 0.462%. The half-life at 40 μM on Cathepsin B (read-out: CatB t1/2 (converted)) was 0.9 h. Moreover, the AUC ratio in [2] turned out to be 0.00445. The compound further yielded a C0 in “in vivo [3]” of 24800 ng/mL. For the same compound, the Vd in the series “in vivo [3]” was 0.04 L/kg. For the same compound, the clearance in the series “in vivo [3]” came out at 1 mL/min/kg. In addition, the half-life was 0.48 h in “in vivo [3]” and 0.49 h in the series “in vivo [4]”. Besides, the fraction unbound came out at 0.173 in the series “in vitro [7]”; 0.11 in “in vitro [8]” (PPB (% Unbound), rat (Table 9)); 0.106 in the series “in vitro [8]” (Plasma protein binding (% Unbound) Rat); 0.187 in the series “in vitro [9]”; 0.211 in “in vitro [10]”.

The values are drawn from patent US12540161B2, “Linkers” (BicycleTx Limited, priority 2020, dated 2026).
